{"source": "paper PMC6699855", "about": "(The Journal of Biological Chemistry, 2019)", "key": {"[1]": {"assay": "Proteolytic stability in human plasma", "format": "in vitro ADME", "conditions": "100 μg in 100 μl human plasma, 37 °C, stopped with 20% TCA; for degradation in human plasma after 18 h: LC-MS/HPLC", "protocol": "The proteolytic stability of full-length Evasin-3 and its variants was tested in pooled human plasma from healthy volunteers (Fig. S12A).\n100 μg of Evasin-3 variants were dissolved in 100 μl of normal plasma taken from a healthy volunteer and incubated at 37 °C. At a required time point reaction was stopped by addition of 15 μl of 20% TCA to a 15-μl aliquot of a sample and analyzed by LC-MS."}, "[2]": {"assay": "pooled human plasma from healthy volunteers", "conditions": "37 °C, up to 18 h"}, "[3]": {"test_system": "CXCL8-induced migration of polymorphonuclear neutrophils", "assay": "PMN migration assay (chemotaxis chamber)", "format": "cell-based", "conditions": "1 nM CXCL8 plus 10 nM variant; human neutrophils, 5-μm membrane, 90 min at 37 °C; n = 10 (Evasin-3), 9 (tEv3 17–56), 5 (tcEv3 16–56 dPG); CXCL8 alone 624 ± 458, control 98 ± 83", "protocol": "To assess the anti-CXCL8 activity of Evasin-3 variants, polymorphonuclear neutrophil (PMN) migration assays were performed. The addition of 1 nM CXCL8 induced significant migration of PMNs (624 ± 458 PMN/mm^2) compared with controls (98 ± 83 PMN/mm^2) in the absence of chemoattractant (Fig. 6). Migration was inhibited by addition of 10 nM of Evasin-3 (206 ± 203 PMN/mm^2).\nHuman neutrophils were isolated from the blood of healthy donors as described previously ([57]). Isolated neutrophils were resuspended at (10^6 cells/ml) in RPMI 1640 medium supplemented with 1% fetal calf serum. A 12-well chemotaxis chamber with a 5-μm polycarbonate membrane (Neuroprobe, Gaithersburg, MD) was used to assess the migration of neutrophils toward the chemoattractant CXCL8 (1 nM) in presence or absence of Evasin-3 variants (10 nM). The chemoattractant was added in the lower wells, and the neutrophils (1 × 10^5 cells) were seeded in the upper wells. After incubation of 90 min at 37 °C, the nonmigrated cells were carefully removed, and the membrane was stained with Diff-Quick stain (Eberhard Lehmann GmbH, Berlin, Germany). Migrated cells were visualized by light microscopy, counted manually in three fields of view, and expressed as cells/mm^2. The data were analyzed by GraphPad Prism 8.0 software using one-way analysis of variance statistical test."}, "[4]": {"biological_target": "human CXCL8 (interleukin-8), recombinant, residues 6–77 (human)", "assay": "SEC; protein alone at 0.1 mg/ml; BioSep SEC-s2000; 50 mM sodium phosphate pH 6.65, 150 mM NaCl; masses from the maker's calibration curve"}, "[5]": {"biological_target": "human CXCL8 (interleukin-8), recombinant, residues 6–77 (human)", "assay": "NMR titration"}, "[6]": {"biological_target": "T1, chemically synthetized CXCL8-Biotin (C-terminally biotinylated human CXCL8) (human, UniProt P10145 28-99, biotin at the C-terminus)", "T1 construct": "also called immobilized human CXCL8; source: chemically synthetized; not shown: biotin, C-terminal, kept", "T1 sequence (looked up)": "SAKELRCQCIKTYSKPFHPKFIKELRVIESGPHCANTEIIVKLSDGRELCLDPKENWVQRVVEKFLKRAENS", "assay": "SPR", "conditions": "both partners purified"}, "CXCL8": {"biological_target": "CXCL8", "conditions": "binding to CXCL8; read-out: Kd value previously measured; cited from earlier work", "text": "In contrast to Evasin-1, where both the N and C termini play a crucial role in chemokine binding ([27], [38]), neither the N nor C terminus of Evasin-3 participate in CXCL8 binding. […] To study the effect of termini on binding, we synthesized two novel CXCL8-binding peptides: linear tEv3 17–56 and cyclic tcEv3 16–56 dPG, both retaining the ICK bundled core of the native protein. The ..."}, "human CXCL8": {"biological_target": "T2, human CXCL8 (Homo sapiens, UniProt P10145)", "T2 construct": "made in house; host or cells: chemical synthesis (no expression host)", "T2 sequence (P10145 21-99)": "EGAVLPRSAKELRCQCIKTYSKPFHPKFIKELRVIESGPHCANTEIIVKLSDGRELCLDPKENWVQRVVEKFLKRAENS", "assay": "SPR biosensor affinity to immobilized CXCL8", "format": "binding", "conditions": "SPR sensorgrams; association 250 s, dissociation 300 s, 30 μl/min; PBS pH 7.4, 0.05% Tween 20"}, "[7]": {"biological_target": "human CXCL8 (interleukin-8), recombinant, residues 6–77 (human)", "assay": "NMR titration; [15N,13C]CXCL8 (200 μM) titrated with unlabelled met-Evasin-3; 15N-1H HSQC and filtered NOESY; 25 mM NaAc-d3 pH 4.5, 37 °C; equilibrium after up to 1 h"}, "[8]": {"biological_target": "T3, CXCL8–GAG (fondaparinux) complex (Homo sapiens, UniProt P10145)", "T3 construct": "human CXCL8 (UniProt: p10145, 6–77); made in house; host or cells: E. coli BL21 (DE3) Star", "T3 sequence (P10145 28-99)": "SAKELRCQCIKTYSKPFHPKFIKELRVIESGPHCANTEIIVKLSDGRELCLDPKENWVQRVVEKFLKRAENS", "assay": "GAG competition for [15N,13C]CXCL8 binding by NMR", "conditions": "30 μM met-Evasin-3 added to 25 μM [15N,13C]CXCL8 with fondaparinux (up to 10-fold excess), 25 °C, pH 7.1; 15N-1H HSQC", "text": "To study competition between Evasin-3 and GAGs for CXCL8 binding, [^15N,^13C]CXCL8 was first titrated with increasing concentrations of dalteparin (Fragmin®, Pfizer) and low-molecular-mass heparin with the average molecular mass of 5 kDa. […] Fondaparinux (Arixtra®, GSK), which comprises the five central sulfated sugar units in heparin, has the well-defined composition and the lower molecular mass (1.7 kDa) comparing with Fragmin. For that reason, fondaparinux facilitates collection of NMR spectra of higher quality and was chosen for further NMR titration experiments. […] Observed changes were consistent with results of previous studies describing the interaction of CXCL8 with several heparin oligosaccharides ([29]).\nFor GAG-binding experiments low-molecular-mass heparin dalteparin (commercial name Fragmin®, Pfizer) and fondaparinux (commercial name Arixtra®, GSK) were purchased from a pharmacy as solutions for injections. 25 μM of [^15N,^13C]CXCL8 was titrated by increasing concentration of aliquots from a stock solution of 5 mg/ml fondaparinux or Fragmin to the final GAG concentration of 0.2 mM at 25 °C, pH 7.1. In the next step, 30 μM of met-Evasin-3 was added to the solution to monitor the displacement of bound fondaparinux and follow Evasin-3–CXCL8 complex formation by a series of 1D proton and ^15N-^1H HSQC spectra."}}, "note": "“Also recorded” adds a separate entry of the source. Positions of bridges follow the written chain, without caps; N, C: chain ends. Non-standard residues stand in square brackets, D forms with d. Residues, ends and D or L forms follow the SMILES beside them.", "data": [{"molecule": "CC[C@H](C)[C@H](NC(=O)[C@H](CCCCN)NC(=O)[C@H](Cc1ccc(O)cc1)NC(=O)[C@@H]1CSSC[C@@H]2NC(=O)[C@H](CCC(=O)O)NC(=O)[C@H](CC(N)=O)NC(=O)[C@H](CCC(N)=O)NC(=O)CNC(=O)[C@H](CO)NC(=O)[C@H]([C@@H](C)O)NC(=O)[C@@H]3CSSC[C@H](NC(=O)[C@H](Cc4ccccc4)NC(=O)[C@H](CSSC[C@H](NC(=O)[C@H](CO)NC(=O)[C@@H](NC(=O)[C@@H](NC(=O)[C@H](CC(=O)O)NC(=O)[C@@H](N)Cc4ccccc4)C(C)C)C(C)C)C(=O)N[C@@H](CC(N)=O)C(=O)N[C@@H](CCCCN)C(=O)N[C@@H](CC(N)=O)C(=O)N3)NC(=O)CNC(=O)[C@H](CCC(=O)O)NC(=O)[C@@H]3CCCN3C2=O)C(=O)NCC(=O)N[C@@H](CC(C)C)C(=O)N[C@@H](CC(C)C)C(=O)NCC(=O)N[C@@H](CCC(N)=O)C(=O)N[C@@H](CC(N)=O)C(=O)N[C@@H](CCCCN)C(=O)N[C@@H](CCCCN)C(=O)NCC(=O)N[C@@H](Cc2c[nH]cn2)C(=O)N1)C(=O)N[C@H](C(=O)NCC(=O)N[C@@H](CC(N)=O)C(=O)O)[C@@H](C)CC", "note": "[tEv3 17–56] (H-FDVVSCNKNCTSGQNECPEGCFCGLLGQNKKGHCYKIIGN-OH; disulfide 6-21, 10-23, 17-34)", "values": [{"measurement": "degradation in human plasma after 18 h", "setting": "[1]", "value": "equally high proteolytic stability"}]}, {"molecule": "LVSTIESRTSGDGADNFDVVSCNKNCTSGQNECPEGCFCGLLGQNKKGHCYKIIGNLSGEPPVVRR", "values": [{"measurement": "cleaved bond", "setting": "[2]", "value": "Arg65-Arg66, 2 h; also recorded: V64-Arg65, 2 h"}]}, {"molecule": "cyclo(CFCGLLGQNKKGHCYKIIGN[dP]GNFDVVSCNKNCTSGQNECPEG) (disulfide 1-29, 3-33, 14-40) [tcEv3 16–56 dPG]", "values": [{"measurement": "degradation in human plasma after 18 h", "setting": "[1]", "value": "equally high proteolytic stability"}, {"measurement": "PMN migration in presence of Evasin-3 variant", "setting": "[3]", "value": "160 ± 65", "unit": "PMN/mm^2"}]}, {"molecule": "human CXCL8 (interleukin-8), recombinant, residues 6–77 (natural protein)", "values": [{"measurement": "stoichiometry N", "setting": "[4]", "value": 2}]}, {"molecule": "truncated Evasin-3 (tEv3 17–56) (from UniProt P0C8E8 37-76) (peptide)", "values": [{"measurement": "stoichiometry N", "setting": "[5]", "value": 1}]}, {"molecule": "FDVVSCNKNCTSGQNECPEGCFCGLLGQNKKGHCYKIIGN", "note": "[truncated Evasin-3 (tEv3 17–56)]", "values": [{"measurement": "Kd", "setting": "[6]", "value": 27, "unit": "nM"}]}, {"molecule": "cyclo(NFDVVSCNKNCTSGQNECPEGCFCGLLGQNKKGHCYKIIGN[dP]G) (ends not checked)", "note": "[truncated cyclic Evasin-3 16–56 with a D-Pro-Gly turn (tcEv3 16–56 dPG)]", "values": [{"measurement": "Kd", "setting": "[6]", "value": 13, "unit": "nM"}]}, {"molecule": "Evasin-3: small salivary chemokine-binding protein from the brown dog tick Rhipicephalus sanguineus (UniProt p0c8e8, 1–66) (protein) LVSTIESRTSGDGADNFDVVSCNKNCTSGQNECPEGCFCGLLGQNKKGHCYKIIGNLSGEPPVVRR", "values": [{"measurement": "Kd", "setting": "CXCL8", "value": 0.43, "unit": "nM"}, {"measurement": "degradation in human plasma after 2 h", "setting": "[1]; 2 h, LC-MS", "value": "degraded nearly quantitatively"}, {"measurement": "degradation in human plasma after 18 h", "setting": "[1]", "value": "only ΔC2 could be detected"}, {"measurement": "association and dissociation kinetics compared with truncated variants", "setting": "human CXCL8", "value": "slower association and dissociation kinetics"}, {"measurement": "PMN migration in presence of Evasin-3 variant", "setting": "[3]", "value": "206 ± 203", "unit": "PMN/mm^2"}]}, {"molecule": "met-Evasin-3 (Evasin-3 1–66 with an N-terminal methionine) (natural protein) MLVSTIESRTSGDGADNFDVVSCNKNCTSGQNECPEGCFCGLLGQNKKGHCYKIIGNLSGEPPVVRR", "values": [{"measurement": "stoichiometry N", "setting": "[7]", "value": 1}, {"measurement": "effect on GAG binding of CXCL8", "setting": "[8]", "value": "completely abolished GAG binding"}]}]}
